Measured values: patent US20210017278A1 (PROTHENA BIOSCIENCES, published 2021)

Key:
Test in all cases: ELISA, peptide coated on plate, HRP secondary, A490
[1] = molecular target: T1, peptide HGDT (SEQ ID NO: 21)
T1 construct: Coated on ELISA plates; also called X1GDX2 peptide
T1 peptide: HGDT
From the text: (§1) ELISA plates were coated with indicated peptides, blocked, and assayed with either NEOD001 or 2A4, as indicated. After washing, appropriate horseradish peroxidase-conjugated secondary antibodies were applied. The plate was then washed and developed with o-phenylenediamene, and absorbance was read at 490 nm.
(§2) ELISA plates were coated with peptides having the amino acid sequence HEDT (SEQ ID NO: 19), AEDS (SEQ ID NO: 20), or HGDT (SEQ ID NO: 21), blocked, and assayed with either NEOD001 (an antibody with a light chain having the amino sequence set forth as SEQ ID NO: 13 and a heavy chain having the amino acid sequence set forth as SEQ ID NO: 14) or 2A4 (ATCC Accession Number 9662), as indicated. After washing, appropriate horseradish peroxidase-conjugated secondary antibodies were applied. The plate was then washed and developed with o-phenylenediamene, and absorbance was read at 490 nm.

[2] = molecular target: T2, peptide HEDT (SEQ ID NO: 19)
T2 construct: Coated on ELISA plates; also called X1EDX2 peptide
T2 peptide: HEDT
From the text: as §1, §2

[3] = molecular target: T3, peptide AEDS (SEQ ID NO: 20)
T3 construct: Coated on ELISA plates; also called X1EDX2 peptide
T3 peptide: AEDS
From the text: as §1, §2

Measured: binding result

B1: NEOD001 (antibody, human IgG1, kappa, V domains shown)
VH: EVQLVESGGGLVQPGGSLRLSCAASGFTFNTYAMYWIRQAPGKGLEWVARIRSKSNNYAIYYADSVKDRFTISRDDSKNSLYLQMNSLKTEDTAVYYCARPYSDSFAYWGQGTLVTVSS
VL: DVVMTQSPLSLPVTPGEPASISCRSSQSLVHSTGNTYLHWYLQKPGQSPQLLIYKVSNRFSGVPDRFSGSGSGTDFTLKISRVEAEDVGVYYCSQSTHVPFTFGGGTKVEIKR
notes: It shares the CDRs of murine antibody 2A4; also called humanized version of antibody 2A4
binds: all assays above
